Square brackets hold non-standard residues; d marks the D form. Ends that are not written are not given here. fluorescein = fluorescein label on the N-terminus; pT = C[C@@H](OP(=O)(O)O)[C@H](N)C(=O)O
Molecular target: T1, GST-TOPBP1(BRCT0-2 1-290) K250E (human, UniProt Q92547 1-290, K250E)
T1 construct: TOPBP1, human, residues 1-290 (BRCT0-2); purified as the wild type; no cleavage of GST described; also called BRCT 2 (K250E); source: E. coli BL21(DE3), purified (HiTrap GST, Superdex 200)
Experiment: fluorescence polarisation; 100 nM fluorescein-labelled SLX4 peptide, increasing concentrations of TOPBP1 BRCT fragment; room temperature; 25 mM HEPES pH 7.5, 150 mM NaCl, 1 mM EDTA, 0.25 mM TCEP, 0.002% Tween 20; single site with non-specific component
Conditions: both partners purified

B1: Flu-SLX4_pT1260 (peptide)
peptide: fluorescein-GYGTSWLVPA[pT]PLASRSR
modifications: also: phosphothreonine at Thr1260 (position 4 or 11)
notes: residues before the SLX4 stretch, not SLX4; SLX4, human, amino acids 1253-1267, pT1260; also called fluorescein tagged SLX4 pT1260-containing peptide; pThr1260 SLX4 peptide; source: synthetic peptide
  binding result: binds

Source: paper PMC12661054, “The CIP2A-TOPBP1 axis facilitates mitotic DNA repair via MiDAS and MMEJ” (Nature Communications, 2025)
